Experimental data reported in the supplement of paper PMC10126150.
± gives the standard deviation of the averaged measurements.

System: ATP
Assay: switch fluorescence ratio, 500 uM ATP over buffer (Cy3 cluster intensity, sum of 5 cycles each) (fold (ratio)); higher = stronger signal-on switching upon ATP binding; sequences stand for … in TCGTCGGCAGCGTCAGATGTGTATAAGAGACAGTTTTTTTTTTTTTTTTTTTTTTTTT…TC
Settings: aptamer strand: ATP DNA aptamer (quencher-CACCTGGGGGAGTATTGCGGAGGAAGG + anchor), 100 nM annealed; ATP concentration: 500 uM
Summary of the method: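 Values give the fluorescence ratio for each switch-domain sequence, averaged from per-cluster ratios of summed target-cycle to summed buffer-cycle Cy3 intensity. The Cy3-labelled switching-strand clusters sat on a modified Illumina MiSeq flow-cell, were annealed to 100 nM quencher-labelled ATP aptamer, and were imaged in selection buffer, then after 15 min with 500 uM ATP at 22 °C. Five cycles ran with NaOH stripping and re-annealing between them, and clusters outside 100-1000 RFU were excluded.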
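Further: ATP exposure 15 min at 22 °C before imaging.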

Row | Sequence | switch fluorescence ratio
1 | TTTTATAGTT | 1 ± 0.023
2 | TTTTATATGC | 1.19 ± 0.27
3 | TTTTATATTA | 1 ± 0.04
4 | TTTTATCCCA | 1.004 ± 0.0067
5 | TTTTATCTAG | 1.01 ± 0.012
6 | TTTTATGAGA | 0.978 ± 0.031
7 | TTTTATGATT | 0.997 ± 0.04
8 | TTTTATGGTG | 0.994 ± 0.019
9 | TTTTATGGTT | 0.997 ± 0.032
10 | TTTTATGTAT | 1.06 ± 0.048
11 | TTTTATTAGA | 0.974 ± 0.065
12 | TTTTATTCTT | 0.987 ± 0.016
13 | TTTTATTGTT | 1.01 ± 0.034
14 | TTTTATTTGG | 0.983 ± 0.018
15 | TTTTCAAGAC | 1.31 ± 0.28
16 | TTTTCAATCT | 0.9933 ± 0.0073
17 | TTTTCACGCA | 1.57 ± 0.53
18 | TTTTCATACT | 1.07 ± 0.046
19 | TTTTCATTAA | 0.9932 ± 0.008
20 | TTTTCATTAG | 1.03 ± 0.026
21 | TTTTCCAAAG | 1.01 ± 0.055
22 | TTTTCCAATA | 1.52 ± 0.13
23 | TTTTCCAGCG | 1.03 ± 0.013

Row | Sequence | switch fluorescence ratio
24 | TTTTCCCTAT | 1.41 ± 0.71
25 | TTTTCCCTGG | 1.46 ± 0.62
26 | TTTTCCGGGG | 1.04 ± 0.045
27 | TTTTCCGGGT | 1.02 ± 0.032
28 | TTTTCCGTAT | 1.18 ± 0.025
29 | TTTTCCTATG | 0.977 ± 0.019
30 | TTTTCCTCCC | 1.28 ± 0.24
31 | TTTTCCTCGC | 2.86 ± 0.27
32 | TTTTCCTGAT | 1 ± 0.017
33 | TTTTCCTTCT | 1.09 ± 0.089
34 | TTTTCCTTTC | 1.206 ± 0.011
35 | TTTTCGAAAT | 1.01 ± 0.024
36 | TTTTCGAATA | 1.009 ± 0.005
37 | TTTTCGATTA | 0.987 ± 0.016
38 | TTTTCGCTGG | 1.01 ± 0.049
39 | TTTTCGCTTA | 1.01 ± 0.03
40 | TTTTCGGACG | 1.03 ± 0.05
41 | TTTTCGGATG | 1.02 ± 0.028
42 | TTTTCGGCTT | 0.965 ± 0.031
43 | TTTTCGGGCA | 0.99223 ± 4.3e-05
44 | TTTTCGGTGG | 1.05 ± 0.019
45 | TTTTCGGTTA | 1.01 ± 0.015
46 | TTTTCTAAGG | 0.989 ± 0.085

Row | Sequence | switch fluorescence ratio
47 | TTTTCTATTG | 1 ± 0.044
48 | TTTTCTATTT | 0.998 ± 0.018
49 | TTTTCTCGCT | 0.967 ± 0.02
50 | TTTTCTCTGT | 0.967 ± 0.023
51 | TTTTCTCTTC | 0.9808 ± 0.0054
52 | TTTTCTGACG | 1.03 ± 0.02
53 | TTTTCTGCGT | 1.02 ± 0.043
54 | TTTTCTGTTC | 0.988 ± 0.044
55 | TTTTCTTGCC | 1.09 ± 0.11
56 | TTTTCTTTTA | 1.001 ± 0.0032
57 | TTTTGAAACT | 0.9733 ± 0.0091
58 | TTTTGAAAGG | 0.976 ± 0.01
59 | TTTTGAAATC | 1.004 ± 0.0061
60 | TTTTGAAGGT | 0.997 ± 0.0099
61 | TTTTGACACG | 0.959 ± 0.03
62 | TTTTGACAGG | 1.03 ± 0.011
63 | TTTTGACGCG | 1.06 ± 0.052
64 | TTTTGAGAAT | 1.017 ± 0.0015
65 | TTTTGAGCCA | 0.983 ± 0.032
66 | TTTTGAGCGA | 1.07 ± 0.051
67 | TTTTGAGCTT | 1.04 ± 0.081
68 | TTTTGAGGG | 1.07 ± 0.061
69 | TTTTGAGGT | 1.02 ± 0.03

Row | Sequence | switch fluorescence ratio
70 | TTTTGAGGTG | 1.06 ± 0.028
71 | TTTTGAGTAT | 0.967 ± 0.035
72 | TTTTGAGTT | 0.986 ± 0.076
73 | TTTTGAGTTA | 0.976 ± 0.039
74 | TTTTGATATT | 1.01 ± 0.035
75 | TTTTGATCGC | 1.36 ± 0.5
76 | TTTTGATGAG | 0.987 ± 0.021
77 | TTTTGATGGC | 1.01 ± 0.022
78 | TTTTGCACGC | 1.28 ± 0.2
79 | TTTTGCCATG | 1.04 ± 0.067
80 | TTTTGCCTCC | 1.09 ± 0.035
81 | TTTTGCGATC | 1.14 ± 0.021
82 | TTTTGCGCGC | 0.994 ± 0.029
83 | TTTTGCTCGT | 1.14 ± 0.2
84 | TTTTGCTGCA | 0.978 ± 0.013
85 | TTTTGCTGGA | 1.02 ± 0.031
86 | TTTTGCTGGG | 1.03 ± 0.11
87 | TTTTGCTGTT | 0.987 ± 0.033
88 | TTTTGGACTA | 1.05 ± 0.081
89 | TTTTGGCCAA | 1.01 ± 0.041
90 | TTTTGGCGAA | 0.989 ± 0.015
91 | TTTTGGCT | 1.02 ± 0.025
92 | TTTTGGCTCC | 0.99685 ± 0.00035

Row | Sequence | switch fluorescence ratio
93 | TTTTGGGCAA | 1.31 ± 0.21
94 | TTTTGGGCAG | 0.971 ± 0.013
95 | TTTTGGGCGG | 0.99 ± 0.022
96 | TTTTGGGCGT | 1 ± 0.062
97 | TTTTGGGGCA | 1.07 ± 0.13
98 | TTTTGGGGTA | 0.993 ± 0.036
99 | TTTTGGGGTG | 1.05 ± 0.12
100 | TTTTGGGTG | 1.04 ± 0.04
101 | TTTTGGGTGT | 1.02 ± 0.059
102 | TTTTGGTAGT | 1.03 ± 0.063
103 | TTTTGGTCTT | 1 ± 0.028
104 | TTTTGGTTAA | 1.02 ± 0.041
105 | TTTTGGTTGC | 1.02 ± 0.032
106 | TTTTGGTTGG | 0.971 ± 0.028
107 | TTTTGGTTGT | 1.01 ± 0.029
108 | TTTTGGTTTC | 1.05 ± 0.11
109 | TTTTGTAATT | 1.1 ± 0.2
110 | TTTTGTATAA | 1.02 ± 0.02
111 | TTTTGTATTC | 1.05 ± 0.12
112 | TTTTGTCGCA | 0.9913 ± 0.0075
113 | TTTTGTCTGT | 1.01 ± 0.016
114 | TTTTGTGAAA | 0.997 ± 0.036
115 | TTTTGTGCGG | 0.98 ± 0.042

Row | Sequence | switch fluorescence ratio
116 | TTTTGTGGAC | 0.996 ± 0.034
117 | TTTTGTGGCA | 0.987 ± 0.014
118 | TTTTGTGGTA | 1.03 ± 0.013
119 | TTTTGTTAGT | 0.997 ± 0.022
120 | TTTTGTTCCC | 1 ± 0.034
121 | TTTTGTTGCT | 0.956 ± 0.037
122 | TTTTGTTGT | 0.987 ± 0.024
123 | TTTTGTTTCC | 1.01 ± 0.062
124 | TTTTGTTTTG | 1 ± 0.043
125 | TTTTGTTTTT | 1.08 ± 0.44
126 | TTTTTAACAT | 0.993 ± 0.033
127 | TTTTTAACGA | 0.9688 ± 0.009
128 | TTTTTAATAT | 1.04 ± 0.062
129 | TTTTTACCAT | 1.04 ± 0.022
130 | TTTTTACTAA | 1.01 ± 0.011
131 | TTTTTACTCC | 1.48 ± 0.53
132 | TTTTTACTGG | 1 ± 0.03
133 | TTTTTAGAGG | 0.97 ± 0.041
134 | TTTTTAGGTT | 1.04 ± 0.064
135 | TTTTTATATC | 0.99 ± 0.028
136 | TTTTTATCCA | 0.976 ± 0.026
137 | TTTTTATGGC | 0.978 ± 0.028
138 | TTTTTATTCC | 1.02 ± 0.034

Row | Sequence | switch fluorescence ratio
139 | TTTTTATTGA | 1 ± 0.034
140 | TTTTTCAAGA | 0.9897 ± 0.0088
141 | TTTTTCAGTT | 1 ± 0.033
142 | TTTTTCCGGG | 1.1 ± 0.11
143 | TTTTTCCGTT | 1.12 ± 0.27
144 | TTTTTCCTAT | 1.012 ± 0.0071
145 | TTTTTCGATT | 0.982 ± 0.026
146 | TTTTTCGTCT | 1.02 ± 0.028
147 | TTTTTCGTGG | 1.01 ± 0.022
148 | TTTTTCGTTT | 0.997 ± 0.034
149 | TTTTTCTACC | 1.035 ± 0.0091
150 | TTTTTCTAGT | 1.01 ± 0.02
151 | TTTTTCTCCC | 1.03 ± 0.049
152 | TTTTTGAAAC | 1.01 ± 0.027
153 | TTTTTGAAAT | 1.35 ± 0.6
154 | TTTTTGAACG | 1.02 ± 0.018
155 | TTTTTGAAGT | 1.01 ± 0.027
156 | TTTTTGAATG | 0.983 ± 0.032
157 | TTTTTGAATT | 1 ± 0.034
